Results published in a protein production outcome set (Wang et al. 2014).

Assay: label from the status in PepcDB records
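Further: failed if final PepcDB status was selected cloned or expressed and not failed if soluble or beyond.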

Sequence	protein production
MEMRFFVLGAGSWGTVFAQMLHENGEEVILWARRKEIVDLINVSHTSPYVEESKITVRATNDLEEIKKEDILVIAIPVQYIREHLLRLPVKPSMVLNLSKGIEIKTGKRVSEIVEEILGCPYAVLSGPSHAEEVAKKLPTAVTLAGENSKELQKRISTEYFRVYTCEDVVGVEIAGALKNVIAIAAGILDGFGGWDNAKAALETRGIYEIARFGMFFGADQKTFMGLAGIGDLMVTCNSRYSRNRRFGELIARGFNPLKLLESSNQVVEGAFTVKAVMKIAKENKIDMPISEEVYRVVYEGKPPLQSMRDLMRRSLKDEFWASVVDSSL	not failed
MEMSKQLGKKFNLLTLLAYAAPTMALMLFMSIYTMVDGMFIARYVGATALSAVNIFFPIYGLIIAIALMLGTGANAIIAKKIGENNEEEAKENFTFIVICGAVLGLVITVFGLLLMEPILLMLGAGATEELFDFTYTYAKIILCTSPFMILQMLFQNFFVTAGKPNLGLTITVVGGVANIVLDYVFIVLLQMGIAGAGIATAIGIFIPAAYGFVYFIYNKESGLHFVKPKVDGKVLLNSCINGSSEMVSNLASSIVTFAFNLLMIKHLGVDGVAAITIMLYVMFILSSISMGYSAGVAPIISYNYGSKNSSQLKRVFNYSLLIIVIGSVTMYGVSMMFGAYFIQFMAPEGSAVYHIAIEGLNIFSISFLFMGFNIFSSMVFTAFSNGKISAAISFLRTLVFVLASLWILPAILGVTGIWLAIPLAEILSVIVCIFFLTHYRNDYHYA	failed
MEMVKSRSKVAIIGAGFVGASAAFTMALRQTANELVLIDVFKEKAIGEAMDINHGLPFMGQMSLYAGDYSDVKDCDVIVVTAGANRKPGETRLDLAKKNVMIAKEVTQNIMKYYNHGVILVVSNPVDIITYMIQKWSGLPVGKVIGSGTVLDSIRFRYLLSEKLGVDVKNVHGYIIGEHGDSQLPLWSCTHIAGKNINEYIDDPKCNFTEEDKKKIAEDVKTAGATIIKNKGATYYGIAVSINTIVETLLKNQNTIRTVGTVINGMYGIEDVAISLPSIVNSEGVQEVLQFNLTPEEEEALRFSAEQVKKVLNEVKNL	not failed
MENEKILNPIIIQRADPMIYKHNDGYYYFTASVPEYDRIEVRKAKTIEGLRNAEPVDVWRRHESGEMSNLIWAPEIHFINGAWYIYFAAAPDKNIEDDTFNHRMFVIQNENENPFTGNWVEKGRIKTAWESFSLDATIFEHNEKLYYVWAQQDINIKGHSNIYIAEMENPWTLKTKPVMLTKPELEWEIKGFWVNEGPAVLKKNGKIFITYSASATDVNYCIGMLTAEENSNLLDKNSWTKSQTPVFKTSMENHQYGPGHNSFTVSEDGKHDVIVYHARNYTEIKGDPLYDPNRHTRAQIINWREDGTPDFGVPEVDSLEIETPVKA	not failed
MENINFFIVFIEGILSIFSPCILPILPIYLSMLSNSSVEDIRDSNFKSGVLIRNTLFFTLGISTTFFILGSSISALSSFFNTNKNIIMILGGVIILFMGLFYLGVINLNILNREKRLNFKYKNMSPLSAFVLGFTFSFGWTPCIGPILASVLVMASSSKNLLMSNLLILVYTIGFILPFIIASLFYGKLFKKFDGIKKHMDLIKKISGIFIIIAGLIMLVGGIRNMNNEIKINNNPQINKSESANKDSKNESDNKKQEEGNKIPPIDFTLYDQYGNKHTLSEYKGKTIFLNFWATWCPPCRGEMPYIDELYKEYNENKDDVVILGVASPNLGREGSEEHIKNFLKEENHVFPVVLDENGAMVYQYGINAFPSTFIINKEGYITKYIPGAMTKETMKTLIESER	failed
MENLKNIQPREDFNWEEFEAGGVHAAVSRQEQEAAYDKTLNTIKEKEVVMGRVTAINKREVVINVGYKSEGVVPATEFRYNPELKVGDEVEVYIENQEDKKGQLVLSHRKARAARSWERVNEALEKDEIVKGYVKCRTKGGMIVDVFGIEAFLPGSQIDVRPIRDYDAFVEKTMEFKIVKINQEYKNVVVSHKVLIEAELEQQKKEIIGKLEKGQVLEGIVKNITSYGVFIDLGGVDGLIHITDLSWGRVAHPEEIVQLDQKINVVILDFDEDRKRIALGLKQLMPHPWDALDSELKVGDKVKGKVVVMADYGAFVEIAQGVEGLIHVSEMSWTQHLRSAQDFLHVGDEVEAVILTLDREERKMSLGLKQLKPDPWADIETRFPVGSRHHARVRNFTNFGVFVEIEEGVDGLIHISDLSWTKKIKHPSEFTEVGADIEVQVIEIDKENRRLSLGHKQLEENPWDVFETVFTVGSIHEGTVIEVMDKGAVVSLPYGVEGFATPKHMVKEDGSQAVLEEKLPFKVIEFNKDAKRIIVSHSRVFEDEQKMAQREANAERKAEAKAAQKEAAAEAANPAQAVEKATLGDLGELAALKEKLSEN	failed
MENLTNDVITILQYLLPGFVSAWVFYSLTSYPKPSQFERVVQALIFTIFIQAIVVVVEFSVRWLCATYEITGVPDKFGLVGSVVTAILLGVAFAGFANNDLLHKCLRRCLITRETSYLRNGLVPFYRTLLLLSYT	failed
MENPLFCPDCGMMRDNCTCKGKGRLSFFRNIIRPPEKSDTLNEDLQRRYPHIPPEIIENFPFPQPRPGQLDIINDIYQAIEEGYRYVILEAGTGTGKSAIACTLAGIYQPAYILTMTKQLQDQYAREFGFPVVKGRSNFFCLNDNLESTCDMGTCQTLPSSEKFQCPYGVVRGETLLGEEAFQDSYGNRVFFKTAEHCQYWEQKAEAINSPITLMNYDYAFLELNYVGHFDRRNLMILDEAHNIEDKLMRRLEVTISNKRLSKDIRRTIPPSMLREDDPAEWVLQIEAIADHYSDLELDSMSRRRRDRIKRTIKRLSELRMSLEDEPKNWVIDADDDSVSFKPLRVHHYAHDRLFSYSEVCLFMSATILSERLFCQWLGINPGDAYFVRVDSPFPASRRPIELKIAGKMSRNRIRHTAPETIPILNRILERHKNDKGLIHTHNYRCQRFIMDNIPSRRLIDHKASNREAVLRYFEESDEPLVLVSPSMSEGVDLPYDKCRFQVIYKIPFPYLGDKQVNRRQRMDQRWYAYKTIMTLMQAYGRGMRAHDDSCYTYILDGNIEMIFRSPLYRSLLPEFFKEAIVNE	failed
MENQEVVLSIDAIQEPEQIKFNMSLKNQSERAIEFQFSTGQKFELVVYDSEHKERYRYSKEKMFTQAFQNLTLESGETYDFSDVWKEVPEPGTYEVKVTFKGRAENLKQVQAVQQFEVK	not failed
MENRRIVIITGANSGIGKEAAQRFANEGDHVIMACRNIAFSRKVQHDIIAASGNDHVDLLELDVSSFASIRTFCTTFNSQYKRLDILIHNAAYFNHGEPYRLSPDGIELTFATNVFGPYLLTSLLRDRLKQSEDPRILHAGSNIIKHFFDPKQTFDLDLLQGNHGTKSYSVYKMYCQSKMALMLLTFQMAEVFADDGIKVNALQINGAKMSKRTIQKVKPWWRPIAWGQNLFFPPPSYMADKYFTICTSDKYKQTTGKLFNDKLEIMEPSPTHYPGFFKQMKLLLGSNVYPAYENTNIREKLWALCKELVGELEHHHHHH	not failed
MENSFLSSKLVFLLAIALVLFLNTELSFLTAEGASDSNSKVYIVYLGQREHDDPELLTASHHQMLESLLQSKEDAHNSMIYSYQHGFSGFAALLTSSQAKKISEHPEVIHVIPNRILKLKTTRIWDHLGLSPIPTSFSSSSSAKAKGLLHNTSMGSEAIIGVVDSGIWPESKVFNDQGLGPIPKRWRGKCRSGEKFNATMHCNKKLIGAKYYQSGLLAMNGGKFNRIIIRDFKSNRDATGHGTHTATIAGGSFVPNASFYGLARGTVRGGAPRARIASYKACWNVVGWGGICSSADMWKAYDDAIHDQVDVLSVSIGASIPEDSERVDFIAAFHAVAKGITVVAAAGNDGSGAQTICNVAPWLLTVAATTLDRSFPTKITLGNNQTFFGKTILEFDSTHPSSIAGRGVVAVILAKKPDDRPAPDNSYIFTDYEIGTHILQYIRTTRSPTVRISAATTLTGQPATPKVAAFSSRGPNSVSPAILKPDIAAPGVSILAAVSPLDPGAFNGFKLHSGTSMSTPVVSGIIVLLKSLHPKWSPAAMRSALVTTAWRTSPSGEPIFAQGSNKKLADPFDYGGGLVNPEKAAKPGLVYDMGIKDYINYMCSAGYNDSSISRVLGKKTKCPIPKPSMLDINLPSITIPNLEKEVTLTRTVTNVGPIKSVYRAVIESPLGITLTVNPTILVFKSAAKRVLTFSVKAKTSHKVNSGYFFGSLTWTDGVHDVTIPVSVKTTISM	failed
MENSLNQNKVWGWGELALMYFPNISQKSATMQLLKWIRVSDELVGQLEKSGWHPGKKYLTPRQKDYIVGHLGEP	failed
MENSTLYIVIAGLWLAVGFGIFLKKLDMPVIIGYICTGTVLAAFFKINDFDLLSDIGEFGIVFLMFMIGIEFNFDKLKSIKQEVLVFGLLQVVLCALIAFLLGYFVLGLSPIFSLVLGMGLSLSSTAIVLKFFEDSKQLSTPMGKSAVGILIFQDIAAIPMLLILTILGSKDSNVNLLILKTFISAGIILVLLLLPGKKGANLILEQAKDTRLPEIFIGTILVIVCSAAGLSHFFGFSMSLGAFIVGMAISKSRYKINVQEEFAQLKNLFLALFFITIGMQINVSFFMEKFFVVIFLLILVMGFKTAIIYALLRFFRDAKTAIKTALSLAQIGEFSFVIFLNSGSHQLFNLQEKKGILGFLHQKNILNIAQNDIHQLLILMVVFSMLATPFILKYLESIAQFILHQKSQENEPAKK	failed
MENTAPDVLDAGAAELPVERLKPELADVPNEKEDEDEAVCGGAEGVVELVVELAVLFKKENPVEAENGEAEAFEVLDVDEELKVDTPNGDGEEVVAPDEEDAKRDGVEPAEEDEPKNGEEPVAPKIDGEEPEADEATLKEGDEPVAPKMDDEEPGADEATLKDGVAPVADDGAPKRGDVEVAADEDAPKREELEAEADEGAENKEGEDPKRGVEPLAGAAPNGDDDGVAAEEAGAPNRDDDGVAVEEAEEVTNPKGEEPGAAEEALVVDEPNSDGAGADEEAAVPNPNDGVVEAGVTEAEDPNPNDGVDEEAEEPNPKEGVEEAPNPNDGVVEEAGVDDTEDPKPNPVELGFEDWLKEKDNGEVVDEAEEELVAEEDPNENPPTELD	failed
MENTVQEARRYLSNAREILSEKAKKNGIYYNDIKYVKLAGRAAYSGVLVALDGLLGKKDTRKSVEWYQEKLGKVDKKALTAFNSAYKILHLSMAYDGIELVSVSKDGLKQAEALINWVETRTAAA	failed
MENVITYNNDKGLLAYIQFLASSAQKIGDGNTDRVFDFEDALDQTQMAQLAVDELKKIPEVNALFSERWLPAPFNLDDLAKLPEGTLGHVYAREMKARGFDPYFYKKVPVVDDISYLKMLWRSTHDIYHVVAGFDTNVFGEIGLQAFFLAQTPIPISVMLLSFGMVMISLYQPTNFKALMTEISRGYRVGSHTPGKLIAQKWDQLWDVQVSEIRERLGVNSIL	not failed
MENVSDDRFAEMVWEAVSGGATLKDVHGIPQDMMEGLYAHAYDFYHKGRLDEAETFFRFLCIYDFYNPDYIMGLAAVCQLKKQFQKAVDLYAVAFALSKNDYRPVFFTGQCQLFMRKAAKARQCFELVCEQSGLEHHHHHH	failed
MEPAGPCGFCPAGEVQPARYTCPRCNAPYCSLRCYRTHGTCAENFY	not failed
MEPDMTQAFDDDTLRFYRGNATAYAERQPRSATLTKFLGELPAGAKILELGCGAGYQAEAMLAAGFDVDATDGSPELAAEASRRLGRPVRTMLFHQLDAIDAYDAVWAHACLLHVPRDELADVLKLIWRALKPGGLFYASYKSGEGEGRDKLARYYNYPSEEWLRARYAEAGTWASVAVESSEGKGFDQELAQFLHVSVRKPELEHHHHHH	not failed
